“And” between values parts separate entries of the source, which are not always exact repeats. Identical values can stand only once. Values belong to the substance of their own block, whether it stands above or below them.
Tests used:
[1] = molecular target: Hyphomicrobium denitrificans SoxR, Strep-tagged wild type (Hyphomicrobium denitrificans); assay: SEC; Superdex 75 Increase 10/300 GL, calibrated with mass standards; 50 mM Tris-HCl, pH 8.0, 150 mM NaCl; 0.8 mL/min; self-association of SoxR
[2] = molecular target: SoxR Cys50Ser, Strep-tagged (Hyphomicrobium denitrificans); assay: as above
[3] = molecular target: SoxR Cys50Ser Cys116Ser, Strep-tagged (Hyphomicrobium denitrificans); assay: as above
[4] = molecular target: SoxR Cys116Ser, Strep-tagged (Hyphomicrobium denitrificans); assay: as above
[5] = molecular target: T1, SoxR (Hyphomicrobium denitrificans) (UniProt D8JT35); assay: EMSA; settings: EMSA: 10 mM Tris-HCl pH 8.0, 50 mM KCl, 1 mM DTT, about 7% glycerol, 17 nM DNA, 15 ul; 20 min at room temperature, then 30 min at 30 C with DNA; 6% native gel …
T1 sequence: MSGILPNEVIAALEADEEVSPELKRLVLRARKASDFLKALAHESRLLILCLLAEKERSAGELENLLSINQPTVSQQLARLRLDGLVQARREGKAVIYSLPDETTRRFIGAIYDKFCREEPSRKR

stoichiometry N [1]: 2 and 4
Substance: Hyphomicrobium denitrificans SoxR, Strep-tagged wild type (natural protein)

stoichiometry N [2]: 2 and 4
Substance: SoxR Cys50Ser, Strep-tagged (natural protein)

stoichiometry N [4]: 2 and 4
Substance: SoxR Cys116Ser, Strep-tagged (natural protein)

Second part, the substance before the results:

Substance: SoxR Cys50Ser Cys116Ser, Strep-tagged (natural protein)
stoichiometry N [3]: 2 and 4

Substance: GGGTCACCAAATTCTGCAGGTCTCAATGCGAATGCGAGGCTGCTCCAGCTAGACGAAAAACAAGGAACGTTGCAATAGATAATTCACATATGATAATTTTCATATGTGTTATAGGATGAACGTTATCGCAGCTTCCGGGAGAGATGGCGTGAT (double strand) [soxA-soxY intergenic fragment, 151 bp]
binding [5]: binds
